Results taken from patent US20160311919A1.

Experiments:
[1] = molecular target: GPNMB-V5His (recombinant human GPNMB extracellular domain with C-terminal V5-His tag) (human) (UniProt Q14956); test: ELISA, coated GPNMB, Ab 37 ng/mL
[2] = molecular target: GPNMB-V5His (recombinant human GPNMB extracellular domain with C-terminal V5-His tag) (human) (UniProt Q14956); test: ELISA, coated GPNMB, Ab 111 ng/mL
[3] = molecular target: GPNMB-V5His (recombinant human GPNMB extracellular domain with C-terminal V5-His tag) (human) (UniProt Q14956); test: ELISA, coated GPNMB, Ab 333 ng/mL
[4] = molecular target: GPNMB-V5His (recombinant human GPNMB extracellular domain with C-terminal V5-His tag) (human) (UniProt Q14956); test: ELISA, coated GPNMB, Ab 12.3 ng/mL
[5] = molecular target: GPNMB-V5His (recombinant human GPNMB extracellular domain with C-terminal V5-His tag) (human) (UniProt Q14956); test: SPR (Biacore), mAb on protein A, GPNMB 880 nM
[6] = molecular target: GPNMB-V5His (recombinant human GPNMB extracellular domain with C-terminal V5-His tag) (human) (UniProt Q14956); test: ELISA, coated GPNMB, Ab 1 ug/mL
[7] = molecular target: GPNMB-V5His (recombinant human GPNMB extracellular domain with C-terminal V5-His tag) (human) (UniProt Q14956); test: ELISA, coated GPNMB, Ab 3 ug/mL

B1: Mab1.2.2 (antibody, human IgG2, V domains shown)
VH: ITLKESGPTLVKPTQTLTLTCTFSGFSLSAGGVGVGWIRQPPGKALEWLALIYWNDDKRYSPSLRSRLTITKDTSKNQVVLTITNMDPVDTATYYCAHSHYDYDWGSYFDYWGQGTLVTVSS
VL: DIVMTQTPLSLPVTPGEPASISCRSSQSLLDSDDGNTYLDWYLQKPGQSPQLLIYTLSYRASGVPDRFSGSGSGTDFTLNISRVEAEDVGVYYCMQRIEFPITFGQGTRLEIKR
[1]
  Avg OD: 0.094 OD
[2]
  Avg OD: 0.199 OD
[3]
  Avg OD: 0.356 OD
[4]
  Avg OD: 0.049 OD
[5]
  Kd: 96 nM
  koff: 0.00089 s⁻¹
  kon: 9260 M⁻¹ s⁻¹
[6]
  Avg OD: 0.499 OD
[7]
  Avg OD: 0.763 OD

B2: 1.7.3 (antibody, V domains shown)
VH: QVQLQESGPGLVKPSQTLSLTCTVSGGSISSANYYWTWIRQHPGKGLEWIGYIYYSGSTYCNPSLKSRVIISVDTSKNQFSLKLSSVTAADTAVYYCARGYNWNYFDYWGQGTLVTVSS
VL: DIVMTQSPATLSVSPGERATLSCRASQSVSSNLAWYQERPGQAPRLLIYGASTRATGIPARFSGSGSGTEFTLTISSLQSEDFAVYYCQQYNKWPPWTFGQGTKVEIER
[1]
  Avg OD: 0.239 OD
[2]
  Avg OD: 0.451 OD
[3]
  Avg OD: 0.76 OD
[4]
  Avg OD: 0.094 OD
[5]
  Kd: 121 nM
  koff: 0.00117 s⁻¹
  kon: 9650 M⁻¹ s⁻¹
[6]
  Avg OD: 0.871 OD
[7]
  Avg OD: 1 OD

B3: Mab1.7.1 (antibody, human IgG2, V domains shown)
VH: QVQLQESGPGLVKPSQTLSLTCTVSGGSISSANYYWTWIRQHPGKGLEWIGYIYYSGSTYCNPSLKSRVIISVDTSKNQFSLKLSSVTAADTAVYYCARGYNWNYFDYWGQGTLVTVSS
VL: DIVMTQSPATLSVSPGERATLSCRASQSVSSNLAWYQERPGQAPRLLIYGASTRATGIPARFSGSGSGTEFTLTISSLQSEDFAVYYCQQYNKWPPWTFGQGTKVEIER
[5]
  Kd: 122 nM
  koff: 0.00144 s⁻¹
  kon: 11800 M⁻¹ s⁻¹

B4: 2-7 (hybridoma of Table 6) (antibody, V domains shown)
VH: QVQLEQSGGGVVQPGRSLRLSCAASGFTFNNYGMHWVRQAPGKGLEWVAVIWYDGSNKYYADSVKGRFTISRDNSKNTLYLQMNSLRAEDTAVYYCAKDEEYYYVSGLDYWGQGTLVTVSS
VL: LTQSPSSLSASVRDRVTITCRASQDISNYLAWYQQKPGKVPNLLIYAASTLQSGVPSRFSGSGSGTDFTLTISSLQPEDVATYYCQKYNSAPLTFGGGTKVEIKR
[1]
  Avg OD: 0.308 OD
[2]
  Avg OD: 0.494 OD
[3]
  Avg OD: 0.68 OD
[4]
  Avg OD: 0.156 OD
[6]
  Avg OD: 0.719 OD
[7]
  Avg OD: 0.827 OD

B5: 2-15 (hybridoma of Table 6) (antibody, V domains shown)
VH: QVQLVESGGGVVQPGRSLRLSCAASGFTFSNYGIHWVRQAPGKGLEWVAVIWFDGRNKYYADSVKGRFTISRDNSKNTLYLQMNSLRAEDAAVYYCARDPFDYGDSFFDYWGQGTLVTVSS
VL: LTQSPSSLSASVRDRVTITCRASQDISNYLAWYQQKPGKVPNLLIYAASTLQSGVPSRFSGSGSGTDFTLTISSLQPEDVATYYCQKYNSAPLTFGGGTKVEIKR
[1]
  Avg OD: 0.246 OD
[2]
  Avg OD: 0.395 OD
[3]
  Avg OD: 0.578 OD
[4]
  Avg OD: 0.127 OD
[6]
  Avg OD: 0.568 OD
[7]
  Avg OD: 0.601 OD

B6: 2-17 (hybridoma of Table 6) (antibody, V domains shown)
VH: QLVQSGAEVKKPGASVKVSCKASGYTFTGFYMHWVRQTPGQGLEWMGWINPNSGGTYYVQKFQGRVTMTRDTSISTVYMELSRLRSDDTAVYYCARDGYSSGEDWFDPWGQGTLVTVSS
VL: DIVMTQTPLSLSVTPGQPASISCKSSQSLLHSGGKTYLYWYLQRPGQPPQLLIYEVSNRFSGVPDRFSGSGSGTDFTLKISRVEAEDVGVYYCMQSIHLPLTFGGGTKVEIKR
[1]
  Avg OD: 0.008 OD
[2]
  Avg OD: 0.009 OD
[3]
  Avg OD: 0.01 OD
[4]
  Avg OD: 0.011 OD
[6]
  Avg OD: 0.019 OD
[7]
  Avg OD: 0.053 OD

B7: Mab1.10.2 (antibody, human IgG2, V domains shown)
VH: QVQLQESGPGLVKPSETLSLTCTVSGDSISNYYWSWIRQPPGKGLEWIGYFYYSGSTNYNPSLKSRVTISVDTSKNQFSLKLSSVTAADTAVYYCARDRGWADYWGQGTLVTVSS
VL: EIVLTQSPGTLSLSPGERATLSCRTSQSISSSYLAWYQQKPGQVPRLLIYGASSRATGIPDRFSGSGSGTDFTLTISRLEPEDFAVYYCQQYGSSITFGQGTRLEIKR
[5]
  Kd: 118 nM
  koff: 0.000466 s⁻¹
  kon: 3960 M⁻¹ s⁻¹

B8: GPNMB antibody (1.10.1) (antibody, V domains shown)
VH: QVQLQESGPGLVKPSETLSLTCTVSGDSISNYYWSWIRQPPGKGLEWIGYFYYSGSTNYNPSLKSRVTISVDTSKNQFSLKLSSVTAADTAVYYCARDRGWADYWGQGTLVTVSS
VL: EIVLTQSPGTLSLSPGERATLSCRTSQSISSSYLAWYQQKPGQVPRLLIYGASSRATGIPDRFSGSGSGTDFTLTISRLEPEDFAVYYCQQYGSSITFGQGTRLEIKR
[5]
  Kd: 209 nM
  koff: 0.000885 s⁻¹
  kon: 4240 M⁻¹ s⁻¹

B9: 2-22 (hybridoma of Table 6) (antibody, V domains shown)
VH: QVQLEQSGPGLVKPSQNLSLTCTVSGGSISSGGYFWSWIRQHPGKGLEWIGYIYYSGNTYYNPSLKSRVTISVDTSKNQFSLKLSSVTAADTAVYYCARDYYYDTSGFSYRYDWYYGMDVWGQGTTVTVSS
VL: DIQLTQSPSSLSASVGDRVTITCRASQGIRNDLGWYQQKPGKAPKRLIYAASSLQNGVPSRFSGSGSGTEFTLTISSLQPEDFATYYCLQHNTYPAFGQGTKVEIKR
[1]
  Avg OD: 0.171 OD
[2]
  Avg OD: 0.355 OD
[3]
  Avg OD: 0.538 OD
[4]
  Avg OD: 0.068 OD
[6]
  Avg OD: 0.707 OD
[7]
  Avg OD: 0.714 OD

B10: 2-16 (hybridoma of Table 6) (antibody, V domains shown)
VH: QVQLVESGGGLVKPGGSLRLSCAASGFTFSDYYMTWIRQAPGKGLEWVSYISISGSITHYADSVKGRFTMSRDNAKNSLYLQMNSLRAEDTAVYYCARDGAAAGTDAFDIWGHGTKVTVSS
VL: EIVMTQSPATLSVSPGDRATLSCRASQNVSSNLAWYQQKPGQAPRLLIFGASTRATGIPARFSGSGSGTEFTLTISSLQSEDFAVYYCQQYHYWPTFGPGTKVDIKR
[1]
  Avg OD: 0.017 OD
[2]
  Avg OD: 0.032 OD
[3]
  Avg OD: 0.068 OD
[4]
  Avg OD: 0.011 OD
[6]
  Avg OD: 0.173 OD
[7]
  Avg OD: 0.359 OD
